Results: publication PMC4465971, “MIST, a Novel Approach to Reveal Hidden Substrate Specificity in Aminoacyl-tRNA Synthetases”

How the values were obtained:
[1] = molecular target: T1, yArgRS (yeast cytoplasmic arginyl-tRNA synthetase) (Saccharomyces cerevisiae, UniProt Q05506 1-607); test: EMSA; 0.5 uM yArgRS, single tRNA, 10 mM Mg2+; 25 mM Tris-HCl pH 7.5, 75 mM KCl, 10 mM MgCl2, 25% glycerol; 15 min at room temperature (Fig 1 legend: on ice); native 6% PAGE at room temperature; details: protein: recombinant, tags: none (tag-free native recombinant, E. coli TB1, pTrc99B), label: 32P, tRNA cloverleaf
T1 sequence: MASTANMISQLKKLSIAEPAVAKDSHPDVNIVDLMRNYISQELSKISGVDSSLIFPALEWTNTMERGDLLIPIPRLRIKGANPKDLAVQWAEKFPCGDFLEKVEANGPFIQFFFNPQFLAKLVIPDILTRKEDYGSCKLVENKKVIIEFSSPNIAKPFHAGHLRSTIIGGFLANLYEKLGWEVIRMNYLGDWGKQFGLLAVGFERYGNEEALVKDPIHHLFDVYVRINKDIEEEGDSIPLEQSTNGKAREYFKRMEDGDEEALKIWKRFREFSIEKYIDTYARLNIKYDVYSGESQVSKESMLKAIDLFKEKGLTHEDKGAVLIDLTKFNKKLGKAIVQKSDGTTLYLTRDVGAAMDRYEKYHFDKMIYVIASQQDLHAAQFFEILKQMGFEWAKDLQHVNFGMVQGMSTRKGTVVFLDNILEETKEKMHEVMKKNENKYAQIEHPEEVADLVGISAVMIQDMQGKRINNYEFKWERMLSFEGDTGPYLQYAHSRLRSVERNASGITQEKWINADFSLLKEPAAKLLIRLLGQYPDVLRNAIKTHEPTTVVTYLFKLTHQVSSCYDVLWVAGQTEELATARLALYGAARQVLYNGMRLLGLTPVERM

[2] = molecular target: T1, yArgRS (yeast cytoplasmic arginyl-tRNA …); test: EMSA + tRNA microarray (MIST); 0.8 uM yArgRS, total tRNA competition, 10 mM Mg2+; 25 mM Tris-HCl pH 7.5, 75 mM KCl, 10 mM MgCl2, 25% glycerol; 15 min at room temperature (Fig 1 legend: on ice); native 6% PAGE at room temperature; details: protein: recombinant, tags: none (tag-free native recombinant, E. coli TB1, pTrc99B), label: 5'-32P, tRNA cloverleaf
[3] = molecular target: T1, yArgRS (yeast cytoplasmic arginyl-tRNA …); test: EMSA + tRNA microarray (MIST); total tRNA competition, 10 mM Mg2+; 25 mM Tris-HCl pH 7.5, 75 mM KCl, 10 mM MgCl2, 25% glycerol; 15 min at room temperature (Fig 1 legend: on ice); native 6% PAGE at room temperature; details: protein: recombinant; tags: none (tag-free native recombinant, E. coli TB1, pTrc99B); label: 5'-32P; tRNA cloverleaf
[4] = molecular target: T1, yArgRS (yeast cytoplasmic arginyl-tRNA …); test: EMSA + tRNA microarray (MIST); total tRNA competition, 10 mM Mg2+; highest among tRNA Arg; 25 mM Tris-HCl pH 7.5, 75 mM KCl, 10 mM MgCl2, 25% glycerol; 15 min at room temperature (Fig 1 legend: on ice); native 6% PAGE at room temperature; details: protein: recombinant; tags: none (tag-free native recombinant, E. coli TB1, pTrc99B); label: 5'-32P; tRNA cloverleaf
[5] = molecular target: T1, yArgRS (yeast cytoplasmic arginyl-tRNA …); test: EMSA + tRNA microarray (MIST); total tRNA competition, 10 mM Mg2+; strong affinity; 25 mM Tris-HCl pH 7.5, 75 mM KCl, 10 mM MgCl2, 25% glycerol; 15 min at room temperature (Fig 1 legend: on ice); native 6% PAGE at room temperature; details: protein: recombinant; tags: none (tag-free native recombinant, E. coli TB1, pTrc99B); label: 5'-32P; tRNA cloverleaf, long variable loop (class 2)

B1: tRNA Leu (GAG) transcript (structured_RNA)
RNA: GGUACUCUGGCCGAGUGGUCUAAGGCGUCAGGUCGAGGUCCUGAUCUCUUCGGAGGCGCGGGUUCAAACCCCGCGGGUAUCA
modifications: none (unmodified transcript)
[1]; long variable loop (class 2)
  binding signal: > 60 % complexed

B2: native tRNA Leu (GAG) (structured_RNA)
RNA: GGUACUCUGGCCGAGUGGUCUAAGGCGUCAGGUCGAGGUCCUGAUCUCUUCGGAGGCGCGGGUUCAAACCCCGCGGGUAUCA
modifications: native post-transcriptional modifications (not specified)
[2]; long variable loop (class 2)
  binding signal: > 3 fold enrichment vs input

B3: native tRNA Gly (GCC) (structured_RNA)
RNA: GCGCAAGUGGUUUAGUGGUAAAAUCCAACGUUGCCAUCGUUGGGCCCCCGGUUCGAUUCCGGGCUUGCGCA
modifications: native post-transcriptional modifications (not specified)
[3]
  binding signal: 4.5 fold lower apparent affinity than tRNA Leu (GAG)

B4: native tRNA Gly (TCC) (structured_RNA)
RNA: GGGCGGUUAGUGUAGUGGUUAUCAUCCCACCCUUCCAAGGUGGGGACACGGGUUCGAUUCUCGUACCGCUCA
modifications: native post-transcriptional modifications (not specified)
[2]
  binding signal: < 0.3 fold enrichment vs input

B5: tRNA Asp (GUC) transcript (structured_RNA)
RNA: UCCGUGAUAGUUUAAUGGUCAGAAUGGGCGCUUGUCGCGUGCCAGAUCGGGGUUCAAUUCCCCGUCGCGGAG
modifications: none (unmodified transcript)
[1]
  binding signal: 35 % complexed

B6: native tRNA Arg (CCU) (structured_RNA)
RNA: GUUCCGUUGGCGUAAUGGUAACGCGUCUCCCUCCUAAGGAGAAGACUGCGGGUUCGAGUCCCGUACGGAACG
modifications: native post-transcriptional modifications (not specified)
[2]
  binding signal: < 0.3 fold enrichment vs input

B7: native tRNA Ser (AGA) (structured_RNA)
RNA: GGCAACUUGGCCGAGUGGUUAAGGCGAAAGAUUAGAAAUCUUUUGGGCUUUGCCCGCGCAGGUUCGAGUCCUGCAGUUGUCG
modifications: native post-transcriptional modifications (not specified)
[2]; long variable loop (class 2)
  binding signal: > 3 fold enrichment vs input

B8: native tRNA Ile (GAT) (structured_RNA)
RNA: GAAACUAUAAUUCAAUUGGUUAGAAUAGUAUUUUGAUAAGGUACAAAUAUAGGUUCAAUCCCUGUUAGUUUCA
modifications: native post-transcriptional modifications (not specified)
[2]
  binding signal: < 0.3 fold enrichment vs input

B9: native tRNA Arg (UCU) (structured_RNA)
RNA: GCUCGCGUGGCGUAAUGGCAACGCGUCUGACUUCUAAUCAGAAGAUUAUGGGUUCGACCCCCAUCGUGAGUG
modifications: native post-transcriptional modifications (not specified)
[4]
  binding result: binds

B10: native tRNA Leu (UAA) (structured_RNA)
RNA: GGAGGGUUGGCCGAGUGGUCUAAGGCGGCAGACUUAAGAUCUGUUGGACGGUUGUCCGCGCGAGUUCGAACCUCGCAUCCUUCA
modifications: native post-transcriptional modifications (not specified)
[5]
  binding result: binds

B11: tRNA Pro (AGG) transcript (structured_RNA)
RNA: GGGCGUGUGGUCUAGAGGUAUGAUUCUCGCUUAGGGUGCGGGAGGUCCCGGGUUCGAGUCCCGGCUCGCCCC
modifications: none (unmodified transcript)
[1]
  binding signal: 19 % complexed

B12: native tRNA Pro (AGG) (structured_RNA)
RNA: GGGCGUGUGGUCUAGAGGUAUGAUUCUCGCUUAGGGUGCGGGAGGUCCCGGGUUCGAGUCCCGGCUCGCCCC
modifications: native post-transcriptional modifications (not specified)
[2]
  binding signal: < 0.3 fold enrichment vs input
